test: soluble on expression in E. coli; label from the status in PepcDB or PDB records

Sequence	soluble on expression in E. coli
DVFVYGSFQEPSVVNLILECSPVMVPAQLHGYHVYRLKGRLHACISPSENGLINGKILTGLTDSQLENLDMIEGSEYVRKTVEVVLTDTSEKKQVETYVWANKDDPNLYGEWDFEEWRRLHMDKFIEASTKFIEWKKNPDG	not soluble
MSLTLRQAIDLAAALLAEAGVDSARCDAEQLAAHLAGTDRGRLPLFEPPGDEFFGRYRDIVTARARRVPLQHLIGTVSFGPVVLHVGPGVFVPRPETEAILAWATAQSLPARPLIVDACTGSGALAVALAQHRANLGLKARIIGIDDSDCALDYARRNAAGTPVELVRADVTTPRLLPELDGQVDLMVSNPPYIPDAAVLEPEVAQHDPHHALFGGPDGMTVISAVVGLAGRWLRPGGLFAVEHDDTTSSSTVDLVSSTKLFVDVQARKDLAGRPRFVTAMRWGHLPLAGENGAIDPRQRRCRAKREGHHHHHH	soluble
MAHHHHHHMSLNAAAAADERSRKEMDRFQVERMAGQGTFGTVQLGKEKSTGMSVAIKKVIQDPRFRNRELQIMQDLAVLHHPNIVQLQSYFYTLGERDRRDIYLNVVMEYVPDTLHRCCRNYYRRQVAPPPILIKVFLFQLIRSIGCLHLPSVNVCHRDIKPHNVLVNEADGTLKLCDFGSAKKLSPSEPNVAYICSRYYRAPELIFGNQHYTTAVDIWSVGCIFAEMMLGEPIFRGDNSAGQLHEIVRVLGCPSREVLRKLNPSHTDVDLYNSKGIPWSNVFSDHSLKDAKEAYDLLSALLQYLPEERMKPYEALCHPYFDELHDPATKLPNNKDLPEDLFRFLPNEIEVMSEAQKAKLVRK	soluble
MSSQKVFGITGPVSTVGATAAENKLNDSLIQELKKEGSFETEQETANRVQVLKILQELAQRFVYEVSKKKNMSDGMARDAGGKIFTYGSYRLGVHGPGSDIDTLVVVPKHVTREDFFTVFDSLLRERKELDEIAPVPDAFVPIIKIKFSGISIDLICARLDQPQVPLSLTLSDKNLLRNLDEKDLRALNGTRVTDEILELVPKPNVFRIALRAIKLWAQRRAVYANIFGFPGGVAWAMLVARICQLYPNACSAVILNRFFIILSEWNWPQPVILKPIEDGPLQVRVWNPKIYAQDRSHRMPVITPAYPSMCATHNITESTKKVILQEFVRGVQITNDIFSNKKSWANLFEKNDFFFRYKFYLEITAYTRGSDEQHLKWSGLVESKVRLLVMKLEVLAGIKIAHPFTKPFESSYCCPTEDDYEMIQDKYGSHKTETALNALKLVTDENKEEESIKDAPKAYLSTMYIGLDFNIENKKEKVDIHIPCTEFVNLCRSFNEDYGDHKVFNLALRFVKGYDLPDEVFDENEKRPSKKSKRKNLLEHHHHHH	soluble
MHNYLDFEKPISDLEGKILELKKLASEDESVNTSDEIARLEGRVRDAMVEIYSKLSPWQKTQVARHPSRPHFLDYASRLFTEFTPLAGDRNFANDDAIQAGLARFHGTPVAVIGQEKGNDTKSRIKHNFGSPRPEGYRKATRIMEMADRFGLPLITLVDTAGAYPGVNAEERGQAEAIARSTEMCLNVKVPIVTVVIGEGGSGGAIAIATGNRVYMLEHAIYSVISPEGAASILWRDSTRAKEAASNMKITAEDLKSLGVIDGIIPEPVGGAHRDPDAVISRTETVIGDALKELSARNGDELRADRRQKYLNIGRNL	not soluble
GPGSMMEGSPSEVHVHSSMAMGLQERPPLELVSHASEVSCLTINDNYDMWNASMYPNLNSGFDASLTSATTPDTTVARFAPAMRPHRKQQLSHQMMPLPARGEQTMSDIDSEVVLWDRPPTQDVLGSPAASGL	soluble
MADSGTAGGAALAAPAPGPGSGGPGPRVYFQSPPGAAGEGPGGADDEGPVRRQGKVTVKYDRKELRKRLNLEEWILEQLTRLYDCQEEEIPELEIDVDELLDMESDDARAARVKELLVDCYKPTEAFISGLLDKIRGMQKLSTPQKK	soluble
MGHHHHHHHHHHSSGHIDDDDKHMGSMAELKYISGFGNECSSEDPRCPGSLPEGQNNPQVCPYNLYAEQLSGSAFTCPRSTNKRSWLYRILPSVSHKPFESIDEGHVTHNWDEVDPDPNQLRWKPFEIPKASQKKVDFVSGLHTLCGAGDIKSNNGLAIHIFLCNTSMENRCFYNSDGDFLIVPQKGNLLIYTEFGKMLVQPNEICVIQRGMRFSIDVFEETRGYILEVYGVHFELPDLGPIGANGLANPRDFLIPIAWYEDRQVPGGYTVINKYQGKLFAAKQDVSPFNVVAWHGNYTPYKYNLKNFMVINSVAFDHADPSIFTVLTAKSVRPGVAIADFVIFPPRWGVADKTFRPPYYHRNCMSEFMGLIRGHYEAKQGGFLPGGGSLHSTMTPHGPDADCFEKASKVKLAPERIADGTMAFMFESSLSLAVTKWGLKASRCLDENYHKCWEPLKSHFTPNSRNPAEPN	soluble
MSLINAGITTVGEFHYVHHSEQKFDLDQLVIQAAIDAGIRIVLLQTLYERAGFDSPAVHPVQERFIASYEDFIGNLEKLRKEKTHERVQIGVAAHSARAVPFENIKKLFEYASEHKIPFHIHLEEQPKEIFDCQKFIGQKQGPSDLILSKMHLNEYFTAVHSTFTPANNMLLFSKLGANVSICPCTEGYLGDGIPRINESLKISFGTDCNNRICFLEEMRWACFSQQMLNNSRSVCGLSPEKLLLCATIDGARALSLTSKTGSLEVGKYFDAISFSLDSPLLENSLADTLIDSLVLSAGNREISNVFVSGVDRKTEGHHHHHH	not soluble
MASQLTQRGALFLLFFLTPAVTPTWYAGSGYYPDESYNEVYAEEVPQAPALDYRVPRWCYTLNIQDGEATCYSPKGGNYHSSLGTRCELSCDRGFRLIGRRSVQCLPSRRWSGTAYCRQMRCHALPFITSGTYTCTNGVLLDSRCDYSCSSGYHLEGDRSRICMEDGRWSGGEPVCVDIDPPKIRCPHSREKMAEPEKLTARVYWDPPLVKDSADGTITRVTLRGPEPGSHFPEGEHVIRYTAYDRAYNRASCKFIVKVQVRRCPTLKPPQHGYLTCTSAGDNYGASCEYHCDGGYDRQGTPSRVCQSSRQWSGSPPICAPMKINVNVNSAAGLLDQFYEKQRLLIISAPDPSNRYYKMQISMLQQSTCGLDLRHVTIIELVGQPPQEVGRIREQQLSANIIEELRQFQRLTRSYFNMVLIDKQGIDRDRYMEPVTPEEIFTFIDDYLLSNQELTQRREQRDICE	soluble
MYDTVRDRLIHLHHCRGAGWKTIHSLLKVDPTLTAPFSLPPNDLRPLVPLSDAQWTAFFHDLHSIDVQRVIKTYKGRCIRVITVFDSDYPPLLKYIYAPPWVLYAKGDSALLQEWKLISIVGTRRPTKEGIEALNKLVPPLVAAGFTIVSGLAFGIDVCAHQLAVQHGGSTIAVIAGGLDHIYPKEHRPFATLLMNEQLVIAEHPPATRPQAWQFPARNRIISGLSLGTLVVQAKRKSGSLITAAYALEQGREVFAVPGPIGLAESAGPNTLIQHGAKLVQEAADILDEFPYV	not soluble
MGSDKIHHHHHHMWEIDQVRQGIVKNQIPSVNLWYGEERFFIQEALQLLKNSYLAQDPSGSGIEILSGKSTGPEQIVEIANTVSFFGGKLIIVEDIPYFQDGQGDALEPFFAYFENPNPGTCLVFLAQSVNRGRKFFKAIEKKGSILEFVSPKRQQEWSAWLDRELAARGKTMKPQVKALFLEWGGHQVGALSQELDKLALFVEGKEIRTEDVRSLVPQAVEATVFELLDAVAARSSKEAVQKLQQVLRQEHSLKVLTLLSRQVRLLLGARAMRQQGRGAEEAPRLLGIKPYEAQKIWQKAAQLTWEQLSWALRECLETDVAIKTGKGEPEFLLELMVVKFCEM	not soluble
MSSDHVFKYVIIGDRGVGKSNLLLRFIGKPFDSIHPSTLGIEFGFRNLEIDRKKVKLHVWDTCGQERFRSLVGSYYRHAIGALLVYDITSRESFYHLEHWLTDLQRLGDPDIVIVLIGNKSDLEADREVRKEEGEAFAREFGLIFMEISAKTNEYVEEAFVNSAHEIYRKLNFGIIKEICVKKKKKKMNIIIRSISGKEKACC	not soluble
MTTSCLQEKIDKLQNTVHALLHKSNYMAGVYVDDLARLNNEIHEQINDLYPCHGKTAEQEAALCLSLLMGYSVSMYANSEDEAKKKTVLRRSQMILKNQLPSPLKIQLHTIYDKLLS	not soluble
MEYRLKAYYREGEKPSALRRAGKLPGLMYNRHLNRKVYVDLVEFDKVFRQASIHHVIVLELPDGQSLPTLVRQVNLDKRRRRPEHVDFFVLSDEPVEMYVPLRFVGTPAGVRAGGVLQEIHRDILVKVSPRNIPEFIEVDVSGLEIGDSLHASDLKLPPGVELAVSPEETIAAVVPPEDVEKLAEEAAAEVAEPEVIKKGKEEEEE	soluble
MKIAIASSGTDLGSEVSRFFGRAPYFMIVEMKKGNIESSEVIENPSASASGGAGIRTAQIIANNGVKAVIASSPGPNAFEVLNELGIKIYRATGTSVEENLKLFTEGNLEEIRSPGSGRGRRRR	soluble
AIAYTFDTTDHKSPCCNFQWYIFRKQGESRIITCELFGVIVSLENRWDWLEFMIDDSLQLTAFRCPKRDKLGMETLLQLGDVAQVTGNWKLSNGAFLNATKIAIHNNPDVECKYWLQQIQKYKSKVCELEIPSDWIRRQQRAHNLKTDAVLSFSAQVSTAAATCWKLWKKHFNQGGKISLQRLWEVIQRENCPKMQELSSCRRNQIVQLLIHLGYLIPLSKEPETYVLLIDDILDKQVMQIFNQNIASKTLSLREVAYRLEEYFHVEEISLERVEESILRLAYKEKVEQV	soluble
MGYRIEFDPRAEKELEKLDREVARRILRFLRERVATLEDPRSLGEPLRGPELGRFWKYRVGDYRLICHIQDREATVLVLRVGHARDVYR	soluble
MAHHHHHHMQIGLAGCSSSLHTSPSSGSAAGSGFYGARGQEAAASATVNSSGANGLCAGATMSSPSATPTLPPLPSTMDEPVDLFPLTPSVSMLQRHSKRSGRLLNESETMQEKHGQEYRFLVPWLAYAIDCTIAAHEVLRQKHGIPAHVSSPASPSANTLNGATDVKRSSRGSANGDPTYADTAGGSSGSGQAALPSPQAELNAFSTREVPAISVHDYLKRIVKYTYVSPSVLVCGCLYLDRLLCMHPCMLLHPYNVFKLFLTSTRMASKIMDTRTLNNHDFSVVGGVTNDDLNALEFLMVELLQNRLYFSRDTFDEYCRPLRLQAAHLTEEASDWGAETAMETPVETRSGVQHQPTRPFLARCNGSNTRSRRSSILSQNEYSVSIASQSGVSPLRSASRPAFPPSASTARSISVDTESIGPARAPASRGGSASTSAPRHPLGTSYSPALPHVPHTAANGGSSPALGAMGGLSGRGASGEDMLRVATHTNSIYQSSNGVWTGQTPPDSVTVLVGVEERGDERARSISLSAPRCGATTSWDATGRPSRLLAASTSTMAGLCTAALNGGRGGYESSPNVCAAPTYNRASASSSRGITASAEDFGAGSMVISYSDRTPTRRAFSHASREGIALPPVVCSGRSERSASVIGVAAQGQRLPPPPDQPRV	not soluble
TDFIWNLTWMGSTVTNKVLKLTGESPEIIKGVFSIKEGMPINTYYMAKSAGVDPATGAQLYWVYDKDDNGNITNEYISSDYQKAANSKYYSGSRIPDLYGSINTDFSYKNFDLSILGTYSIGGKVYDSLYAGSMEVMYAGNTWNKHALRRWQQPGDITDVPRIQIGGSYTTSDRFLVDASYFAIKNITLGYTIPKQWLKKAGLESVRIFGSVDNLALFSHLDGMDPQYNFKGETDYSYAPNKTYSVGFEINF	not soluble
MGSDKIHHHHHHMTIQIDLPETSTNKIIYSDECKDILNLSVAKIQEMFKSSGIILFRGFGITHELMQVFAEQFSSRLTRDDDKPLVEPNGFVSLVDIGMHEILPHRENGSSPFSPDAVWFCCTVPAAEGGETLFWDGIQVWQKLSEELRKLFISKKIKFVHKFPADKWKHFLGSDATISDAKRVLDGFNNVKYQIDQEESIYTEYICSAVLQTKYGNQNAFVNDIITGNSNLKGSVNLELESALTFEDGSLIPDAAIEEIEKVMYSLTQEIRWKPGDLVMIDNSRFLHGRRAFSDNRRRLFSLLSYLNF	not soluble

Reference: the DeepSol protein solubility set
